Test results taken from doi:10.1101/2023.05.16.540868 (bioRxiv, 2023).
Like-named read-outs stand apart in the source and are kept apart here.

Columns and labels:
mass photometry [1] = target: the molecule itself; assay: mass photometry
mass photometry [2] = target: the molecule itself; assay: mass photometry; remark: listed apart in the source

Protein	stoichiometry N (mass photometry [1])	stoichiometry N (mass photometry [2])
SPD-5(541-677) (domain or fragment, C. elegans, UniProt P91349 541-677, looked up) SQSHIPILHDMQQILDSSAMFLEGQHDVAVNVEQMQEKMSQIREALARLFERLKSSAALFEEILERMGSSDPNADKIKKMKLAFETSINDKLNVSAILEAAEKDLHNMSLNFSILEKSIVSQAAEASRRFTIAPDAE	2	
SPD-5(541-677) R592K (domain or fragment, C. elegans, UniProt P91349 541-677, looked up) SQSHIPILHDMQQILDSSAMFLEGQHDVAVNVEQMQEKMSQIREALARLFEKLKSSAALFEEILERMGSSDPNADKIKKMKLAFETSINDKLNVSAILEAAEKDLHNMSLNFSILEKSIVSQAAEASRRFTIAPDAE	2	
SPD-5(541-677) phosphorylated by PLK-1(CA) (domain or fragment, C. elegans, UniProt P91349 541-677, looked up, phosphorylated by PLK-1(CA) (verified by gel migration shift and MS); sites not printed for this fragment) SQSHIPILHDMQQILDSSAMFLEGQHDVAVNVEQMQEKMSQIREALARLFERLKSSAALFEEILERMGSSDPNADKIKKMKLAFETSINDKLNVSAILEAAEKDLHNMSLNFSILEKSIVSQAAEASRRFTIAPDAE		2
